Assay results taken from paper PMC11068555.

Target: SARS-CoV-2 S Foldon his (prefusion stabilized spike ectodomain) (SARS-CoV-2 (Wuhan-Hu-1) | bacteriophage T4) (UniProt P0DTC2)
Experiment: native gel or EMSA

## SARS-CoV-2 S Foldon his (prefusion stabilized spike ectodomain) (from UniProt P0DTC2 14-1138) (domain or fragment)
  stoichiometry N: 3
